Measured values reported in PMC7356834.

Experiments:
[1] = test system: T1, APASM_1021 (AdpA-like protein) (Actinosynnema pretiosum ATCC 31280), ORF:1b9350d8; experiment: EMSA; settings: 10 mM Tris-HCl pH 7.5, 1 mM EDTA, 100 mM KCl, 5% glycerol, 0.1 DTT (unit not given), 0.01 mg/mL BSA; 30 min at 30 C; 10% native PAGE at 4 C
T1 sequence: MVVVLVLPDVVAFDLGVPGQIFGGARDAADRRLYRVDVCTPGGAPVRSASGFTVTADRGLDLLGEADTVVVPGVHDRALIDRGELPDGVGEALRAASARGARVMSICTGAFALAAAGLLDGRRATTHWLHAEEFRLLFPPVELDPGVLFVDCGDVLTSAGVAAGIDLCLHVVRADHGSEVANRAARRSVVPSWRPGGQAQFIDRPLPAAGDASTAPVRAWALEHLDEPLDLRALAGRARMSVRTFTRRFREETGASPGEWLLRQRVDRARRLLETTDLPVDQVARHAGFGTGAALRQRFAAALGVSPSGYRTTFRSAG

[2] = test system: T1, APASM_1021 (AdpA-like protein) (Actinosynnema pretiosum ATCC 31280), ORF:1b9350d8; experiment: competition; settings: 10 mM Tris-HCl pH 7.5, 1 mM EDTA, 100 mM KCl, 5% glycerol, 0.1 DTT (unit not given), 0.01 mg/mL BSA; 30 min at 30 C; 10% native PAGE at 4 C

Sequence	binding [1]	binding [2]
TGGAGCCGCTGACGGGGAGCCATCGACGGGAAGCCGCTGACCGGCCTCTCCGCGCCGCCACGCGGGCGCCGCACCTGAACCAGGTGCGGCGCCCGCGTGGTCGCGCCCTTTGACCCCGCCCCCGTTCCCCT (double strand) [P4178]	binds	
TGGAGCCGCTGACGGGGAGCCATCGACGGGAAGCCGCTGACCGGCCTCTCCGCGCCGCCACGCGGGCGCCGCACCTGAACCAGGTGCGGCGCCCGCGTGGTCGCGCCCTTTGACCCCGCCCCCGTTCCCCT (double strand) [P4178 unlabeled competitor]		binds
